Source: patent publication US8242083B2, “Kinase substrates” (PerkinElmer Health Sciences, Inc., priority 2008, dated 2012)

Experiments:
Assay type in all cases: biochemical
[1] = target: ABL (Homo sapiens, UniProt P00519); test: TR-FRET kinase assay, ABL; details: Kinase Concentration 0.25 nM; 50 nM ULight-labeled substrate, 200 micromolar ATP, 2 hours
Procedure: (§1) TR-FRET kinase assays are performed under standardized conditions: various individual kinases are incubated with 50 nM of kinase substrate BRB1 labeled with the TR-FRET acceptor dye ULight (PerkinElmer) and 200 micromolar ATP in 10 μL of kinase assay buffer (50 mM HEPES pH7.5, 10 mM MgCl2, 3 mM MnCl2, 1 mM EGTA, 2 mM DTT and 0.01% Tween-20) for 2 hours at room temperature. Reactions are stopped with EDTA, and anti-phospho-tyrosine antibodies (clone PT66) labeled with the TR-FRET europium chelate donor dye are added to a final concentration of 2 nM in a final volume of 20 μL. The TR-FRET signal emitted at 665 nm is read one hour after the addition of antibodies using a TR-FRET plate reader such as the Envision® Multilabel Plate reader (PerkinElmer). The emitted signal at 665 nm is proportional to the extent of peptide phosphorylation, Control reactions indicative of background are performed excluding ATP from the reaction.
(§2) Assay conditions are identical to those used described for FIG. 1.

[2] = target: FRK (Homo sapiens, UniProt P42685); test: TR-FRET kinase assay, FRK; details: Kinase Concentration 0.5 nM; 50 nM ULight-labeled substrate, 200 micromolar ATP, 2 hours
Procedure: as §1, §2

[3] = target: JAK2 (Homo sapiens, UniProt O60674); test: TR-FRET kinase assay, JAK2; details: Kinase Concentration 1 nM; 50 nM ULight-labeled substrate, 200 micromolar ATP, 2 hours
Procedure: as §1, §2

[4] = target: T1, DDR2 (Homo sapiens, UniProt Q16832); test: TR-FRET kinase assay, DDR2; details: Kinase Concentration 0.5 nM; 50 nM ULight-labeled substrate, 200 micromolar ATP, 2 hours
T1 sequence (Q16832 22-855): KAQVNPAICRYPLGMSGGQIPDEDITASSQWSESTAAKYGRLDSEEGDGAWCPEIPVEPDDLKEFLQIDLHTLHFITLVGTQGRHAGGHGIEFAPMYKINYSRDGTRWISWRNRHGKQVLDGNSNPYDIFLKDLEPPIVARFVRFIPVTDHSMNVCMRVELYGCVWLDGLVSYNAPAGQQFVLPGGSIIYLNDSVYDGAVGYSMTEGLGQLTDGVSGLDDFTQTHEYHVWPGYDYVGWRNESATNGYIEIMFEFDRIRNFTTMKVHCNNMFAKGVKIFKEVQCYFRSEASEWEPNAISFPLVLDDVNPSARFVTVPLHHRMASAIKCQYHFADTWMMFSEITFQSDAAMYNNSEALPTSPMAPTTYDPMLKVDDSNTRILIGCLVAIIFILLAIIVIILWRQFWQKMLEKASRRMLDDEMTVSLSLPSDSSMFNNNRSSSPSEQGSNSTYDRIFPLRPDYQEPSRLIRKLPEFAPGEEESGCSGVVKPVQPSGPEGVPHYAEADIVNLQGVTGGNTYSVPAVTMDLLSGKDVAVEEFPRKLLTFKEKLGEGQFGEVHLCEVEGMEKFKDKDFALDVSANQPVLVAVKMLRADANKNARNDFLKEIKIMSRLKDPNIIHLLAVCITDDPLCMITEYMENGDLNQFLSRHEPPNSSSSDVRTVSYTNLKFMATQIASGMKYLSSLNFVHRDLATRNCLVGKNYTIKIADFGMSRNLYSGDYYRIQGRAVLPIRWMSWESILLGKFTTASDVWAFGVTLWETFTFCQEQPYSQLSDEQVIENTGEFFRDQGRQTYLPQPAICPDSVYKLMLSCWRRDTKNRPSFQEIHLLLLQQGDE
Procedure: as §1, §2

[5] = target: T2, EphB4 (Homo sapiens, UniProt P54760); test: TR-FRET kinase assay, EphB4; details: Kinase Concentration 0.5 nM; 50 nM ULight-labeled substrate, 200 micromolar ATP, 2 hours
T2 sequence (P54760 16-987): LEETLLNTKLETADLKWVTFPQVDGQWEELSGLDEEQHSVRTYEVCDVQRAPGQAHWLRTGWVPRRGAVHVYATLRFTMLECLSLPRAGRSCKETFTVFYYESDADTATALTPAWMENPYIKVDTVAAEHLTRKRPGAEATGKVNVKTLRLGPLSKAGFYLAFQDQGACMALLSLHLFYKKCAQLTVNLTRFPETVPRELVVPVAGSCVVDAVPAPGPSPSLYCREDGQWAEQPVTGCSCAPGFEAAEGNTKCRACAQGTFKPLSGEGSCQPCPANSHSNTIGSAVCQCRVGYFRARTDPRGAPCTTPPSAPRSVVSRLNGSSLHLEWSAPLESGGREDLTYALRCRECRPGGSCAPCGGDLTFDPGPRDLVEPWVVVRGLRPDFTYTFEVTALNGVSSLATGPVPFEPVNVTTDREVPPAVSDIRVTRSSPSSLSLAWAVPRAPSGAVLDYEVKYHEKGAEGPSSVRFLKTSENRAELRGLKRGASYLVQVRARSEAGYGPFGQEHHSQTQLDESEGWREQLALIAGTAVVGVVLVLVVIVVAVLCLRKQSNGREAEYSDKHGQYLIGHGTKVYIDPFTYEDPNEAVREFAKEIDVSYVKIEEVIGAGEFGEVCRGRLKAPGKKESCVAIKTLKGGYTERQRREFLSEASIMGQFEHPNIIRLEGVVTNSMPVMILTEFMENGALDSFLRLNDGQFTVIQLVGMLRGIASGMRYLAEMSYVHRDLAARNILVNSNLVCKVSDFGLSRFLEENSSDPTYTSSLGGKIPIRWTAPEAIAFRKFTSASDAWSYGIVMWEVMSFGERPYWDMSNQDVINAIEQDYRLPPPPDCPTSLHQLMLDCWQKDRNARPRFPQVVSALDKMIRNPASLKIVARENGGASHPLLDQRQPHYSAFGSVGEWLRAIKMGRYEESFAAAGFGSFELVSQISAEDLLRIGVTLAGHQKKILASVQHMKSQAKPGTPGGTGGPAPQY
Procedure: as §1, §2

[6] = target: FMS (CSFR) (Homo sapiens, UniProt P07333); test: TR-FRET kinase assay, FMS (CSFR); details: Kinase Concentration 0.25 nM; 50 nM ULight-labeled substrate, 200 micromolar ATP, 2 hours
Procedure: as §1, §2

[7] = target: HER4 (ERBB4) (Homo sapiens, UniProt Q15303); test: TR-FRET kinase assay, HER4 (ERBB4); details: Kinase Concentration 0.1 nM; 50 nM ULight-labeled substrate, 200 micromolar ATP, 2 hours
Procedure: as §1, §2

[8] = target: IGF1R (Homo sapiens, UniProt P08069); test: TR-FRET kinase assay, IGF1R; details: Kinase Concentration 0.25 nM; 50 nM ULight-labeled substrate, 200 micromolar ATP, 2 hours
Procedure: as §1, §2

[9] = target: PDGFRa (Homo sapiens, UniProt P16234); test: TR-FRET kinase assay, PDGFRa; details: Kinase Concentration 0.5 nM; 50 nM ULight-labeled substrate, 200 micromolar ATP, 2 hours
Procedure: as §1, §2

[10] = target: ROR2 (Homo sapiens, UniProt Q01974); test: TR-FRET kinase assay, ROR2; details: Kinase Concentration 20 nM; 50 nM ULight-labeled substrate, 200 micromolar ATP, 2 hours
Procedure: as §1, §2

[11] = target: TRKC (NTRK3) (Homo sapiens, UniProt Q16288); test: TR-FRET kinase assay, TRKC (NTRK3); details: Kinase Concentration 0.5 nM; 50 nM ULight-labeled substrate, 200 micromolar ATP, 2 hours
Procedure: as §1, §2

Sequence of PDGFRa (P16234 24-1089, species assumed): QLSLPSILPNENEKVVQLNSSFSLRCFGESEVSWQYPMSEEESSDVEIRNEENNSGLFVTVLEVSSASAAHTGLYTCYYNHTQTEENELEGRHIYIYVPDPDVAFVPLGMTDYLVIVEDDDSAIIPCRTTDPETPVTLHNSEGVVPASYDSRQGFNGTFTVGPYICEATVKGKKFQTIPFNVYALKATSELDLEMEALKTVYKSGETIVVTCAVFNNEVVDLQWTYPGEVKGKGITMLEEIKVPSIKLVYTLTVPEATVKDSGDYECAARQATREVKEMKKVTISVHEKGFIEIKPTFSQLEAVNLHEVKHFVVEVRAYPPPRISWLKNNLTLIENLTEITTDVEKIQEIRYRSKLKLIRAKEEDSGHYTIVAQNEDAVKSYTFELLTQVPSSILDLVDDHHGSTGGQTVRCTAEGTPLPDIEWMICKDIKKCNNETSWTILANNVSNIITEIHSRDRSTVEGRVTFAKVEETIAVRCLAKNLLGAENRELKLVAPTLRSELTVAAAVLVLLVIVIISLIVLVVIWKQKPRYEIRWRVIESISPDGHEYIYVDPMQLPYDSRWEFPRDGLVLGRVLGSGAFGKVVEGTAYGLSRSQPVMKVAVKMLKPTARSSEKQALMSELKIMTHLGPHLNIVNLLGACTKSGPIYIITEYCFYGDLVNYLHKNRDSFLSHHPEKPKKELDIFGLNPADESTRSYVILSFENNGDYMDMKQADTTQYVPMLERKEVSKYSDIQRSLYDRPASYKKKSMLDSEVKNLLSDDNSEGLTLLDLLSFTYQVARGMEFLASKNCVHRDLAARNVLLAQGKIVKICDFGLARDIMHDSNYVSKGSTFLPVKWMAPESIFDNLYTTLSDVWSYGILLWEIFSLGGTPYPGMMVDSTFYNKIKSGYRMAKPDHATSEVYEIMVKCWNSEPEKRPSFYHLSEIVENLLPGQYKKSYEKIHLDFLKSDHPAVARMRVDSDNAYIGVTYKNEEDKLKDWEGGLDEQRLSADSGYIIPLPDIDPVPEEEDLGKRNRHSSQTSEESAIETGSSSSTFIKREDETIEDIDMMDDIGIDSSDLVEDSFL
Sequence of JAK2 (O60674 whole entry, species assumed): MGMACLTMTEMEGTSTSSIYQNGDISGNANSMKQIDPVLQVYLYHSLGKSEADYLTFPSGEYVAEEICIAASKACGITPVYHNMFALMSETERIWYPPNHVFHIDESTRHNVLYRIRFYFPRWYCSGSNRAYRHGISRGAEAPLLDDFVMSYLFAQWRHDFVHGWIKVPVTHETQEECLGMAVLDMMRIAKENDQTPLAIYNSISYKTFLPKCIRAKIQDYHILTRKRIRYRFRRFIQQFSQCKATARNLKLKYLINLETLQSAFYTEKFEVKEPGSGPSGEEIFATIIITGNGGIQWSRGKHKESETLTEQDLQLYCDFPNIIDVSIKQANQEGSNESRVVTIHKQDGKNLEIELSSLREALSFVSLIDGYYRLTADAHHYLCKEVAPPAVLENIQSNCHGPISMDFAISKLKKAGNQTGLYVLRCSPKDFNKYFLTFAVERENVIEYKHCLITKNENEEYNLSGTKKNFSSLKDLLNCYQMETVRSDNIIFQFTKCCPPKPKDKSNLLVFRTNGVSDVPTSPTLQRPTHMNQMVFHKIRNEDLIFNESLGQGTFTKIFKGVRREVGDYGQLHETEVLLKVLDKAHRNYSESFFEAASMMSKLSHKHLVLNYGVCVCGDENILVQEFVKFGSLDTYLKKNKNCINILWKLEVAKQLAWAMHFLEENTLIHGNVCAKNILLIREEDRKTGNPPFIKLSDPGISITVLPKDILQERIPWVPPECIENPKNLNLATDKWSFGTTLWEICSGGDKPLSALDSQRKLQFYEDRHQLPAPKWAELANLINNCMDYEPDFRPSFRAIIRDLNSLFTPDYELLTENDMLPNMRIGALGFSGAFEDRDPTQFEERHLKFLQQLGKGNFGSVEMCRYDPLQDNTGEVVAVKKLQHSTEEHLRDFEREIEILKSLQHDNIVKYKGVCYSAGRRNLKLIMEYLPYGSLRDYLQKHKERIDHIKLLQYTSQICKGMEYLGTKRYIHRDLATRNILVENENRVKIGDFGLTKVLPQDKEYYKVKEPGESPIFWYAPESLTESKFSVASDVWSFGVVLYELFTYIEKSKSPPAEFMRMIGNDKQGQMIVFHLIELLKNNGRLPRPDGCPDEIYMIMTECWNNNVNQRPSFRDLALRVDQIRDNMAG
Sequence of FRK (P42685 whole entry, species assumed): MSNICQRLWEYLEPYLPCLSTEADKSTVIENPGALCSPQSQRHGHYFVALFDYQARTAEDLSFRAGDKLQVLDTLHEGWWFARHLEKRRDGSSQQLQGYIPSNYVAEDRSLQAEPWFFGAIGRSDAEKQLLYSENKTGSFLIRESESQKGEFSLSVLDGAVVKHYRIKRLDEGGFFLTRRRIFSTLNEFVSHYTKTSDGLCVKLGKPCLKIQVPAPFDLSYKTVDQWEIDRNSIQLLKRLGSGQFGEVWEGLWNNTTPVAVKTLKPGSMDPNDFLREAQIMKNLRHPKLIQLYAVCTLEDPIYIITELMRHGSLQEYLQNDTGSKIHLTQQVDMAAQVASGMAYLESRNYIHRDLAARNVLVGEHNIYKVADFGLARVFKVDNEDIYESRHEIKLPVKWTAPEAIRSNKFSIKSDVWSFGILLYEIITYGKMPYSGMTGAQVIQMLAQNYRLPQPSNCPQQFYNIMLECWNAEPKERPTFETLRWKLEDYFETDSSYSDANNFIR
Sequence of HER4 (ERBB4) (Q15303 26-1308, species assumed): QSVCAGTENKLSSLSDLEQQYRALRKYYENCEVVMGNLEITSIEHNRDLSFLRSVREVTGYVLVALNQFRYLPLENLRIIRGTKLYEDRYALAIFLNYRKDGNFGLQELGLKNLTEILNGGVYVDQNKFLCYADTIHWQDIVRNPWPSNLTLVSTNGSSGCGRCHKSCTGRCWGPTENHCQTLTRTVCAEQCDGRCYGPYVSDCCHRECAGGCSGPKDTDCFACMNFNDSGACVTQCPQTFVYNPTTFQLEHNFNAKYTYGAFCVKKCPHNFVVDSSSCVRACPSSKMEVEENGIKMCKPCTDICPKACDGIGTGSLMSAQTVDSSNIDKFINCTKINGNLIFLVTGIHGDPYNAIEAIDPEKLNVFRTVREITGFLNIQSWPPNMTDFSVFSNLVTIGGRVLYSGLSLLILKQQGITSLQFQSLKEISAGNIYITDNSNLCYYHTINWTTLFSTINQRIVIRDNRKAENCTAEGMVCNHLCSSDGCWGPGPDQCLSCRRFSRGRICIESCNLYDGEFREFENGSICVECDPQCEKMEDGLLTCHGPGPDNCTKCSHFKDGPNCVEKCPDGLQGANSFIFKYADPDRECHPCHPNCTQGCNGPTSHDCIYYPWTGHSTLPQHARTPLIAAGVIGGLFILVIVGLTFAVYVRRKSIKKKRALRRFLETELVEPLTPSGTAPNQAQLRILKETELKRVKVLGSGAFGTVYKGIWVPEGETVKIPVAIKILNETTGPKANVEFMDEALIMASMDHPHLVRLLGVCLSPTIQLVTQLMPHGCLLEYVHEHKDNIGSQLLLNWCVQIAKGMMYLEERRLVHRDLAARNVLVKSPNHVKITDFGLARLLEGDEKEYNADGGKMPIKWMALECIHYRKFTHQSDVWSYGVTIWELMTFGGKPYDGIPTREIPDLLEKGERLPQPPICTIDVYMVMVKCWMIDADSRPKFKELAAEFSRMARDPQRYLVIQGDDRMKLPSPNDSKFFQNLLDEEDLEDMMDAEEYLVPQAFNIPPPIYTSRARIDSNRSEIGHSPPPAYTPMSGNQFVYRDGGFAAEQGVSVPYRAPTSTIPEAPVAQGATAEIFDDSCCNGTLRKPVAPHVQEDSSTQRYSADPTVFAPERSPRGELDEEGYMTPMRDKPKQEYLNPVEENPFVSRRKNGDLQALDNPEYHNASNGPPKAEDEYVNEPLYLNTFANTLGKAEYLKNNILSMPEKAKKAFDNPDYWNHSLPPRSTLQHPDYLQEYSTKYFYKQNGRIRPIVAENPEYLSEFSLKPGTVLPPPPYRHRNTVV
Sequence of ABL (P00519 whole entry, species assumed): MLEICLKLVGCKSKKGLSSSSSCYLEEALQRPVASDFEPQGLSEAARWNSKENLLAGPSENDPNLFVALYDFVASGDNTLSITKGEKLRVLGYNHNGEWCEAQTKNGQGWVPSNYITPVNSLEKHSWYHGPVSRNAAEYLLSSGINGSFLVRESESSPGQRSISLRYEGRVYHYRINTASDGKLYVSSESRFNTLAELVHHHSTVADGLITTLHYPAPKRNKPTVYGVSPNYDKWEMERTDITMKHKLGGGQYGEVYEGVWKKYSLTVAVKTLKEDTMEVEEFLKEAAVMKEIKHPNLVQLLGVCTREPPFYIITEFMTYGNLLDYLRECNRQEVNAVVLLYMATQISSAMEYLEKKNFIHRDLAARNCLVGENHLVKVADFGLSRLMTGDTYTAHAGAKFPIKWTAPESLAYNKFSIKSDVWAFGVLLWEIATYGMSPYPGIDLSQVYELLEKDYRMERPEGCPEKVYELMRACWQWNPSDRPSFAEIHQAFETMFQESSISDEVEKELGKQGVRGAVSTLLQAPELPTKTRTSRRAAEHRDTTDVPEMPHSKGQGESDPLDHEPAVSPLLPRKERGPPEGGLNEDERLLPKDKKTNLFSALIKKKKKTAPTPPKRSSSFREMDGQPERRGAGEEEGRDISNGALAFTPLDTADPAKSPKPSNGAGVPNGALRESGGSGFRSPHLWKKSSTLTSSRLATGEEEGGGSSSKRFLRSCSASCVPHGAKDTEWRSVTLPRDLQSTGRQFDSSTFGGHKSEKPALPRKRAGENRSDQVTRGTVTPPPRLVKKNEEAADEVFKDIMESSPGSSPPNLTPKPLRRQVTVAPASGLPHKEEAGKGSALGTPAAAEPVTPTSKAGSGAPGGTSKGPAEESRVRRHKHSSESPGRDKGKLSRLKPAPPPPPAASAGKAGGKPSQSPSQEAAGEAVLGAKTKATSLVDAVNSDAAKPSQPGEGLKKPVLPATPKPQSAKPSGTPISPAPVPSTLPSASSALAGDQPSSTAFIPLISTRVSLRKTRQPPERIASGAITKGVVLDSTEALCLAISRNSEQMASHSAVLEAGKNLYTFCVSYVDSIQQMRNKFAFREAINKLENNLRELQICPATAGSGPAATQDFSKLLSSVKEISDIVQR

C AYE AYE AYE K EYA EYA EYA K AYA EYE R (CAYEAYEAYEKEYAEYAEYAKAYAEYER; tyrosine kinase substrate peptide) [BRB1]
Signal to Noise ratio with BRB1 Peptide [1]: 4.1 | Signal to Noise ratio with BRB1 Peptide [2]: 9.7 | Signal to Noise ratio with BRB1 Peptide [3]: 35.5 | Signal to Noise ratio with BRB1 Peptide [4]: 1.0 | Signal to Noise ratio with BRB1 Peptide [5]: 29.8 | Signal to Noise ratio with BRB1 Peptide [6]: 3.0 | Signal to Noise ratio with BRB1 Peptide [7]: 3.1 | Signal to Noise ratio with BRB1 Peptide [8]: 25.1 | Signal to Noise ratio with BRB1 Peptide [9]: 8.0 | Signal to Noise ratio with BRB1 Peptide [10]: 1.0 | Signal to Noise ratio with BRB1 Peptide [11]: 6.4
